This assay addresses RQR8. The assay is described as follows: cell-based or functional assay.

Sequence of RQR8 (chain, as listed by the source limits assumed): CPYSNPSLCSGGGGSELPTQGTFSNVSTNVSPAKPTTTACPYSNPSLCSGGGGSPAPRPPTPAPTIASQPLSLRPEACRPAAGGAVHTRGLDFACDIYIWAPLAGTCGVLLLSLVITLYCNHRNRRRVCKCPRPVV

As to rituximab (antibody), the complement-dependent cytotoxicity (CDC): CAR+ cells eliminated, RTX 100 µg/ml with baby rabbit complement, 2 hours was 85%.

Values taken from patent US20240189354A1.
